22 sequences from the DeepSol protein solubility set can be followed below.

This data set is described as follows: soluble on expression in E. coli; label from the status in PepcDB or PDB records.
Take “MHHHHHHSSGMNWTVDIPIDQLPSLPPLPTDLRTRLDAALAKPAAQQPTWPADQALAMRTVLESVPPVTVPSEIVRLQEQLAQVAKGEAFLLQGGDCAETFMDNTEPHIRGNVRALLQMAVVLTYGASMPVVKVARIAGQYAKPRSADIDALGLRSYRGDMINGFAPDAAAREHDPSRLVRAYANASAAMNLVRALTSSGLASLHLVHDWNREFVRTSPAGARYEALATEIDRGLRFMSACGVADRNLQTAEIYASHEALVLDYERAMLRLSDGDDGEPQLFDLSAHTVWIGERTRQIDGAHIAFAQVIANPVGVKLGPNMTPELAVEYVERLDPHNKPGRLTLVSRMGNHKVRDLLPPIVEKVQATGHQVIWQCDPMHGNTHESSTGFKTRHFDRIVDEVQGFFEVHRALGTHPGGIHVEITGENVTECLGGAQDISETDLAGRYETACDPRLNTQQSLELAFLVAEMLRD”: the “soluble on expression in E. coli” value is given as “soluble”.
As to “MGSDKIHHHHHHMDKGKSVKSTEKSVGMPPKTPKTDNNAHVDNEFLILQVNDAVFPIGSYTHSFGLETYIQQKKVTNKESALEYLKANLSSQFLYTEMLSLKLTYESALQQDLKKILGVEEVIMLSTSPMELRLANQKLGNRFIKTLQAMNELDMGEFFNAYAQKTKDPTHATSYGVFAASLGIELKKALRHYLYAQTSNMVINCVKSVPLSQNDGQKILLSLQSPFNQLIEKTLELDESHLCTASVQNDIKAMQHESLYSRLYMS”, the “soluble on expression in E. coli” value is listed as “not soluble”.
With “MPFKDQLFLASQYLAPHHLVSRLMGRAADCRAPEIKNRMIARFVRRYNVDMSEALVEDPLAYASFNDFFTRALKPDARPLDDEPGAALCPADGAISQIGAIDNGRIFQAKGHSFGLTDLLGGDAERAAPFAGGQFATIYLSPRDYHRVHMPLAGTLREMVHVPGRLFSVNPLTARSVPELFARNERVACLFDTEHGPMALVLVGAMIVASIETVWAGLVTPHKRQVRSVRYDAAARAPIHLDKGAEMGRFKLGSTVIVLFGPKRLRWLDLPSVRGPVRMGETLALPASTAISFPESELEHHHHHH”, the “soluble on expression in E. coli” value is reported as “not soluble”.
For “MSTPFKMERGVKYRDAAKTSIIPVKNIDPNQDLLKKPEWMKIKLPASSAKIESIKNGMRRHGLHSVCEEASCPNLHECFNHGTATFMILGAICTRRCPFCDVAHGKPLPPDPEEPQKLAETIQDMKLKYVVITSVDRDDLPDRGAGHFSECVKAVRELNPNIKIEILVPDFRGRITQALEKLKDNPPDVFNHNLENVPRLYKEIRPGADYEWSLKLLREFKEIFPNIPTKSGLMVGLGETNEEILQVMQDLRDNGVTMLTLGQYLQPSRHHLPVARYVPPTEFDEFRDKANEMGFEHAACGPFVRSSYHADLQASGGLVKLEHHHHHH” the value was “not soluble”.
For the sequence “MSLRLPMGLVAVLALVGTAAHAAPKGAEARMIATVDAEQARTLRFLEVMVNQNSGSRNLEGVRRLRDIVVPEFTALGFTSRWIPMERTGRAGHLVLTHKGRQGAKKLLLIGHLDTVFEPDSPFQTYVLNGEKATGPGVGDDKGGIAVILAAVRAMNAAGTLKGASIEVFLTGDEEEAGSPTEVARADLVAAARAADVALDFEGLSRENGRDMGSIARRSSQSWSLTVEAKSGHSSGVWGANAGDGAIYAAAKIVNAFRTELPEPWLTLNVGLIAGGAEAEVAEDNAHVSAQGKTNIIPGEVIARGDLRTLSPEQNRAAMRKMEEIVGRPYPGVTSARIAFSEGYPPMAPTEGNKALLARLNQVNATLGLPEMQPLDPMKRGAGDISFVAEYIDGLVGLGPHSTGDHAPGETVDVPSIWTQAKRAALLMTRLSAEKSAREGHHHHHH”, the “soluble on expression in E. coli” value is on record as “soluble”.
With “MSLSDDLFAPQVPVEVANRRPLADRLRPKTLSEVSGQPHLTGEEGVLRRMIDSGSLGSMIFWGPPGTGKTTVARLLSGEAGLAFEQISAIFSGVADLKKVFEAARTRRMNGRQTLLFVDEIHRFNRAQQDSFLPVMEDGTIILVGATTENPSFELNAALLSRARVLTFGSHDEDSLSELLKRAEEAEGKPLPLTEEARASLLRMADGDGRAVLTLAEEVWRAARKDETFDTEGLTRIVQRRAPVYDKSQDGHYNLISALHKSVRGSDPDAALYYLARMFDAGEDPLYLGRRLVRMAVEDIGLADPQALAVCNAAKDAYDYLGSPEGELALAQACVYLATAPKSNAVYTAFKAAMRAAKENGSLVPPKHILNAPTKLMKGEGYGDGYRYDHDEPDAFSGQDYFPEKMGRTTFYDPPDRGFEREIRKRLDWWAKLRRERGEGHHHHHH”, the “soluble on expression in E. coli” value was “not soluble”.
For “MSLKKLILTTAALALSAGMAMADTVRMGTEGAYPPYNFINDAGEVDGFERELGDELCKRAGLTCEWVKNDWDSIIPNLVSGNYDTIIAGMSITDERDEVIDFTQNYIPPTASSYVATSDGADLSGIVAAQTATIQAGYIAESGATLVEFATPEETIAAVRNGEADAVFADRDYLVPIVAESGGELMFVGDDVPLGGGVGMGLRESDGELRGKFDAAITSMKEDGTLNTMIKKWFGEDAAVYEEGHHHHHH” the value was “soluble”; for “MSLFIISQVFSPEGQRVLTMQFTKWFIALPLAVTALSGCSLLERLVYRIDINQGNYVDQQSVDQLKFGMSKDQVRFVLGSPMLVENGYPDTWYYIYHHTQGHNDPVQKNLIVKFNDGGKLVNVAGDFPAGDSFFEGVNEGHHHHHH”, “soluble”; for “MGGSHHHHHHGMASALRTDKKSEFLKALKRDRVEEEHEDESRAGSEKDDDSFNLHNSNSTHQERDINRNFDENEIPQENGNASVISQQIIRSSTFPQTDVLSSSLEAEHRLLKEMGWQEDSENDETCAPLTEDEMREFQVISEQLQKNGLRKNGILKNGLICDFKFGPWKNSTFKPTTENDDTETSSSDTSDDDDV”, “not soluble”.
The result for “MDVFELTKKTLLAVISESSSSDDYLEALAEIEGLVKHEAAATSFQLMERGKVRELAVPKPEFYNKRRKFEDFQEKTVFDWKSEFNLKNAKKVERWTVEEKEKREKQRCFIEVEHYKKKEYLNFLYPGVHYCTCPYFQSTVLQKQTNWICVHILAYYFAKNFGKIERIECKSEIVGLVKKIFIRSIFLEEKK” reads “not soluble”.
For “MTEQLFDSLAKQNGFRVLSGGKYGGNNGFDHVWQAADGSVVLIVESKQIRNGTVQLNPNGAGGYTQMSREWIKQVVKSLPDGSPAKAVVLKANQNGKLKTAIAGVDRQTGKAVILSVKVPSKTNIRR” the value was “not soluble”; for “MSLKKIQFFDTTLRDGEQTPGVNFDVKEKIQIALQLEKLGIDVIEAGFPISSPGDFECVKAIAKAIKHCSVTGLARCVEGDIDRAEEALKDAVSPQIHIFLATSDVHMEYKLKMSRAEVLASIKHHISYARQKFDVVQFSPEDATRSDRAFLIEAVQTAIDAGATVINIPDTVGYTNPTEFGQLFQDLRREIKQFDDIIFASHCHDDLGMATANALAAIENGARRVEGTINGIGERAGNTALEEVAVALHIRKDFYQAETNIVLNQFKNSSDLISRLSGMPVPRNEGHHHHHH”, “soluble”.
Turning to “MPPVCGRRCSRTGEIRGYSGSIVRRWKRVETRDGPRFRSSLAPHEAALLKNLAGAMIGLLDDRDSSSPSDELEEITGIKTGHAQRPGDPTLRRLLPDFYRPDDLDDDDPTAVDGSESFNAALRSLHEPEIIDAKRVAAQQLLDTVPDNGGRLELTESDANAWIAAVNDLRLALGVMLEIGPRGPERLPGNHPLAAHFNVYQWLTVLQEYLVLVLMGSR”, the “soluble on expression in E. coli” value is recorded as “not soluble”.
The result for “MGSDKIHHHHHHMLRSLPVLMYHYISRVHDSIAVHPDQFEDHCRGMAAEGWRGVSLAEAEAFLAEGTPLPERSVLITFDDGFLDNYVHALPILEKYGHCGTVFATAGKLETAAGLRPTLADVWSGRIPAEGLPRVDAPFVKHRLGFDERHDLFLNWDEARHAESTGTLAVAAHSMWHRSVFTSASYEGFYAPQRRGRTFDRVEGDVPWGLPRFKVGPALRERAFLPSAELLHAIRETVPQDKDGAYAFFSDTAATERLMHTVEAFGADGLGRFETDAERTERMYREMRDCKQLLENELGHPVTTFCWPWGAFCDEALAIGRELGFRVFLTTLMGSNPPSAPLAVHRFKAKAKPWSWLRLRLHVYSRPLLANLYARMRL” reads “not soluble”; that for “MLIEMWSPVFKKHGEIREPICFHHGLNVIMGMDLADNSIGKSSSLLAIDFIFGGNSYLKSIAVKKLGDHPIYFCFQFEKKFYFSRDTANPDIILVCDKSYSPTGETMDLGIFLNKLKKRYHLDSPELSFRLAMSGFFRIAGKSNQNTDFPLQVYSSQKSSESITTLIQLFNLYDNIARYKERLKDKSDQLTTFRNARRYAFISNLVGGKKQFEANVSEIKRLEYDLAHLQDTHQDKIDSDDI”, “not soluble”.
The result for “MMTMMATFLDVIDQKARSHYDEGKGLALRSLDPEADAAQLQQWFSMDYARFWSMQDSSVHQVRDFYTALCSSGHAGAWLGLHHGRAAFLVECYDPARDQVGEHYCVRPGDLGMHLLIAPPTEHIPGFSRAVFALVMRFMFDRLHAARVVVEPDVNNTKIHALNLSMGFVYAGLARFREKTASLAFCTRAQFEQAQRQELTQ” reads “not soluble”.
For “MDGHYEVSKSILINRSSPDVFAYVSHIKNQEHYSVWAKRDTNSIKTYRGRDGVVGFTATWKSEMKKVGQGEQEIKKIIPNKRIDLELRFFKPFEATDHVFMETIAQDEEETKVVWGFDGEMAYPVNFFLLFVDMEDVLGGDLETGLVNLKTILESKLEHHHHHH” the value was “soluble”; for “MPNTTNKDYTKYSQRQLFSFLNSIKTKQKRALEKLKEIQAQKQRIKKALQFKALNLTENGYTIEEEREILARAKDTKNRLCFKSIEDFKKHCENL”, “not soluble”.
“MGSDKIHHHHHHMKDLLTRRFVLNSKEVREGDVFVAVKGKRFDGHDFIDEALRNGAYAIIAERKTVNSDRIFLVESSVDTLAKLAREKLGNFSGTVVGVTGSSGKTTTKEILYNLLKNKRSVFKTPGNMNTEYGLPLSILNDYKGEEILVLEMAASRPGDIAHLCKIAPPDVAVLLNVGSAHLEFFGTRERIMETKMEIIKHSKENAIAVTLFDDPDLRKEVPRYRNTLFFGKEGGDSVLKDWWYYEGSTIAEFEAFDSLFTVKLSGYWNGGQLLNIAASLCVMRTLGETVDIFDLASLKTVPGRFNVREKKGVLIVDDTYNASPEAFQTSIEALLRFPGKKFAVVGAMKELGERSKEFHEELGERLNVLDGVYVFLSEPEAEWIKSKKIILKSDDPEKIAKDLATRVKKGDVVLFKASRAVRIERVLEM”: the “soluble on expression in E. coli” value is listed as “not soluble”.
For “SMAGCVVIVGSGVIGRSWAMLFASGGFQVKLYDIEQQQIRNALENIRKEMKLLEQAGSLKGSLSVEEQLSLISGCPNIQEAVEGAMHIQECVPEDLELKKKIFAQLDSIIDDRVILSSSTSCLMPSKLFAGLVHVKQCIVAHPVNPPYYIPLVELVPHPETAPTTVDRTHALMKKIGQCPMRVQKEVAGFVLNRLQYAIISEAWRLVEEGIVSPSDLDLVMSEGLGMRYAFIGPLETMHLNAEGMLSYCDRYSEGIKHVLQTFGPIPEFSRATAEKVNQDMCMKVPDDPEHLAARRQWRDECLMRLAKLKSQV” the value was “soluble”.
For “PKAPVTGYVRFLNERREQIRTRHPDLPFPEITKMLGAEWSKLQPAEKQRYLDEAEKEKQQYLKELWAYQQSEAYKVCTE” the value was “soluble”.
For “MHILDIWHRRNSRSYIAHLRSLGIRIGDGCIFRDPLTTRIDVSRPALVSIGSNVDMNTYFQILTHDWASFVFRNKYHDFVNSSGRVEIGSNIYIGTNVIVLRGVTIGDNCVIGAGSVVTHDIPANSVAVGAPCRVVCSLEHHHHHH” the value was “not soluble”.
